This assay addresses T1, MUC1 (human, UniProt P15941 1039-1148).
T1 chain: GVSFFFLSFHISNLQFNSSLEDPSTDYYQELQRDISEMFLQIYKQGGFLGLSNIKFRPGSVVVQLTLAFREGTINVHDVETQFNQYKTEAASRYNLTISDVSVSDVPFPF
In words: flow.

B1: anti-Muc1 T4E3 Fab (Fab, V domains shown)
VH: QVQLVQSGGGLVQPGGSLRLSCAASGFTFDDYAMHWVRQAPGKGLEWVSGISWNSGSIGYADSVKGRFTISRDNAKNSLYLQMNSLRAEDTALYYCAKDIGSGSYYNYYYGMDVWGQGTTATISS
VL: SSELTQDPAVSVALGQTVRITCQGDSLRSYYASWYQQKPGQAPVLVIYGKNSRPSGIPDRFSGSNSGSTASLTITGAQAEDEADYYCNSRDRYGNSLVIFGGGTKLTVL
As usually defined, the EC50 is the midpoint of the concentration-response curve. Read a high EC50 as a need for much substance. As for B1, the EC50 stood at 16 nM.

B2: T4E3 scFv (scFv, V domains shown)
VH: B1 VH
VL: B1 VL
In turn, B2 displayed an EC50 of 7.48 nM.

The values above are taken from patent US12448462 (dated 2025).
